Where “and” joins values, the source holds several entries; their conditions need not be identical. Equal entries are not always repeated.
Assays:
[1] = molecular target: Exchange protein directly activated by cAMP 1 (EPAC1), recombinant full-length wild-type EPAC1B (human); assay: SAXS; EPAC1 with 1 mM cAMP, no Rap1b, 2.7 mg/mL, 10 mM Tris pH 9, 1 mM EDTA, 10 mM DTT, 500 mM NaCl; monomer to dimer
[2] = molecular target: Exchange protein directly activated by cAMP 1 (EPAC1), recombinant full-length wild-type EPAC1B (human); assay: MST; EPAC1-cAMP and Rap1; no further conditions told

Chain of C-terminally truncated Rap1b (1-167) (P61224 1-167): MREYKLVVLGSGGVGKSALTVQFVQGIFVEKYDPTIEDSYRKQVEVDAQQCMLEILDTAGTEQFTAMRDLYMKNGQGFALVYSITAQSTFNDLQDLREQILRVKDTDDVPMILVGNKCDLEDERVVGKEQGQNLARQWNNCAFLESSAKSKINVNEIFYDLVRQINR

percent monomer in solution (EOM/polydispersity analysis) [1]	stoichiometry N [1]	Kd [2]	Substance
5 to 15%	1.8 and 2.4 and 2.2	–	Exchange protein directly activated by cAMP 1 (EPAC1), recombinant full-length wild-type EPAC1B (natural protein)
–	–	20 to 60 nM	C-terminally truncated Rap1b (1-167) (from UniProt P61224 1-167) (domain or fragment)

From article PMC7016869
